# Data taken from patent US20160287687A1 (IMMATICS BIOTECHNOLOGIES, published 2016).
# B1: SLTALRLLL (SEQ ID NO: 70) (peptide)
# peptide: SLTALRLLL
# notes: source gene KBTBD11
# Molecular target: T1, HLA-A*02:01 (human)
# T1 construct: MHC monomers first loaded with a UV-sensitive peptide (not identified) that is cleaved by UV light and exchanged for the test peptide; captured on streptavidin plates, detected with anti-β2m; also called peptide-receptive MHC molecules; MHC class I
# Test: UV-ligand exchange + anti-b2m ELISA; peptide exchange yield grade (+ >=10%, ++ >=20%, +++ >=50, ++++ >=75%)
# Text: Candidate peptides for T cell based therapies according to the present invention were further tested for their MHC binding capacity (affinity). The individual peptide-MHC complexes were produced by UV-ligand exchange, where a UV-sensitive peptide is cleaved upon UV-irradiation, and exchanged with the peptide of interest as analyzed. Only peptide candidates that can effectively bind and stabilize the peptide-receptive MHC molecules prevent dissociation of the MHC complexes. To determine the yield of the exchange reaction, an ELISA was performed based on the detection of the light chain (β2m) of stabilized MHC complexes. The assay was performed as generally described in Rodenko et al. (Rodenko et al., 2006).
# 96 well MAXISorp plates (NUNC) were coated over night with 2 ug/ml streptavidin in PBS at room temperature, washed 4× and blocked for 1h at 37° C. in 2% BSA containing blocking buffer. Refolded HLA-A*02:01/MLA-001 monomers served as standards, covering the range of 15-500 ng/ml. Peptide-MHC monomers of the UV-exchange reaction were diluted 100 fold in blocking buffer. Samples were incubated for 1 h at 37° C., washed four times, incubated with 2 ug/ml HRP conjugated anti-β2m for 1h at 37° C., washed again and detected with TMB solution that is stopped with […]. Absorption was measured at 450 nm. […]
binder,measurement,value
B1,peptide exchange yield,20 to 50%
